The labels stand for the following.
T1: Biotinylated murine VEGF-164 (Acro Biosystem) (mouse, UniProt Q00731-2 27-190, biotinylated (site not stated))
T1 construct: Bought protein; also called Mouse VEGF164; mouse VEGFA
T1 sequence (looked up): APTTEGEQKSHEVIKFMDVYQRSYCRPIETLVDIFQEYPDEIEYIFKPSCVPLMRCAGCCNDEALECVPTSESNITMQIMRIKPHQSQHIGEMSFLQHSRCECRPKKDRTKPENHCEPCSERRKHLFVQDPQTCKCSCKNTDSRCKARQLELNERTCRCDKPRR

T2: Human VEGF-121 (Acro Biosystems) (human, UniProt P15692 207-395)
T2 construct: Bought protein; also called human VEGFA
T2 sequence: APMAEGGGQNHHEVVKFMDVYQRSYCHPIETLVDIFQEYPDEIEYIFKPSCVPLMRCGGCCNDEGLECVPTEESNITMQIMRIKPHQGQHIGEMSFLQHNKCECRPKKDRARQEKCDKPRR

B1: 16A2.1 (VHH)
VHH: EVQLVESGGGLVQPGGSLRLSCAISGFALAETDIDWVRQAPGKGLEWVARIFSSGGNTDYADSVKGRFTISADTSKNTVYLQMNSLRAEDTAVYYCGRSDSIAYNVILPNSTYTARDYRGQGTLVTVSS
notes: E. coli, ATG codon 5' (possible initiator Met), 3' hexahistidine tag; also called anti-VEGF DotBody 16A2.1; clone 16A2.1
B2: 21E6.1 (VHH)
VHH: EVQLVESGGGLVQPGGSLRLSCAISGFTLAATDIDWVRQAPGKGLEWVARIFTPTGFSDYADSVKGRFTISADTSKNTVYLQMNSLRAEDTAVYYCGIPELYAYNIFMDIPAYNDVYYRGQGTLVTVSS
notes: Autonomous humanised VH domain (DotBody), from the 16C2.1-based library with heat challenge; E. coli, ATG codon 5' (possible initiator Met), 3' hexahistidine tag; also called DotBody 21E6.1
B3: 20A2.1 (VHH)
VHH: B1 VHH with A28P, E31D, G55Y, N57S, V106I, N110A, T114S, A115S
notes: Autonomous humanised VH domain (DotBody), from the 16A2.1-based library with heat challenge; E. coli, ATG codon 5' (possible initiator Met), 3' hexahistidine tag; also called DotBody 20A2.1
B4: 21A1.1 (VHH)
VHH: EVQLVESGGGLVQPGGSLRLSCAISGFALATTDIDWVRQAPGKGLEWVARIFNPSDFTDYADSVKGRFTISADTSKNTVYLQMNSLRAEDTAVYYCGRPAVYGYNIFLDSPTYDASQYRGQGTLVTVSS
notes: Autonomous humanised VH domain (DotBody), from the 16C2.1-based library with heat challenge; E. coli, ATG codon 5' (possible initiator Met), 3' hexahistidine tag; also called DotBody 21A1.1
B5: 13A6 (VHH)
VHH: EVQLVESGGGLVQPGGSLRLSCAISGFSLAATDIDWVRQAPGKGLEWVARIFPSAGSTDYADSVKGRFTISADTSKNTVYLQMNSLRAEDTAVYYCGRSDSYSYNVFLHNPTYTALDYRGQGTLVTVSS
notes: Autonomous humanised VH domain (DotBody); also called anti-VEGF DotBody 13A6; clone 13A6
B6: 16A6.1 (VHH)
VHH: B5 VHH with S54F, A55S, A61T, N110D, T112A
notes: E. coli, ATG codon 5' (possible initiator Met), 3' hexahistidine tag; also called clone 16A6.1
B7: 21D9.1 (VHH)
VHH: EVQLVESGGGLVQPGGSLRLSCAISGFSLGATDIDWVRQAPGKGLEWVARIFSPSDFTDYADSVKGRFTISADTSKNTVYLQMNSLRAEDTAVYYCSRPDTYAYNIFPHTASHGAFNYRGQGTLVTVSS
notes: Autonomous humanised VH domain (DotBody), from the 16C2.1-based library with heat challenge; E. coli, ATG codon 5' (possible initiator Met), 3' hexahistidine tag; also called DotBody 21D9.1
B8: 21A8.1 (VHH)
VHH: EVQLVESGGGLVQPGGSLRLSCAISGFSVDATDIDWVRQAPGKGLEWVARIFSPSGFTDYADSVKGRFTISADTSKNTVYLQMNSLRAEDTAVYYCDRPEFYAYNIFHDPRTVPAGNYRGQGTLVTVSS
notes: Autonomous humanised VH domain (DotBody), from the 16C2.1-based library with heat challenge; E. coli, ATG codon 5' (possible initiator Met), 3' hexahistidine tag; also called DotBody 21A8.1
B9: 23D5.1 (VHH)
VHH: EVQLVESGGGLVQPGGSLRLSCAISGFDLATTDIDWVRQAPGKGLEWVARIFRPSDFTDYADSVKGRFTISADTSKNTVYLQMNSLRAEDTAVYYCVRPDSYAYNILFVTRTFNALHYRGQGTLVTVSS
notes: Autonomous humanised VH domain (DotBody), from the 16C2.1-based library without heat challenge; E. coli, ATG codon 5' (possible initiator Met), 3' hexahistidine tag; also called DotBody 23D5.1
B10: 20A3.1 (VHH)
VHH: EVQLVESGGGLVQPGGSLRLSCAISGFSLADTDIDWVRQAPGKGLEWVARIFSSSGSTYYADSVKGRFTISADTSKNTVYLQMNSLRAEDTAVYYCDRADSVGYNVIFPGSTYSRSGYRGQGTLVTVSS
notes: Autonomous humanised VH domain (DotBody), from the 16A2.1-based library with heat challenge; E. coli, ATG codon 5' (possible initiator Met), 3' hexahistidine tag; also called DotBody 20A3.1
B11: 16A2.1x2 (VHH)
chain: SEVQLVESGGGLVQPGGSLRLSCAISGFALAETDIDWVRQAPGKGLEWVARIFSSGGNTDYADSVKGRFTISADTSKNTVYLQMNSLRAEDTAVYYCGRSDSIAYNVILPNSTYTARDYRGQGTLVTVSSGGGGSGGGGSGGGGSGGGGSGGGGSGGGGSGGGGSEVQLVESGGGLVQPGGSLRLSCAISGFALAETDIDWVRQAPGKGLEWVARIFSSGGNTDYADSVKGRFTISADTSKNTVYLQMNSLRAEDTAVYYCGRSDSIAYNVILPNSTYTARDYRGQGTLVTVSSHHHHHH
notes: Tandem of two 16A2.1 VH domains in one chain; 'produced in the same way' as the single clones (E. coli, ATG codon 5', 3' hexahistidine tag); also called bivalent molecule 16A2.1x2; bivalent 16A2.1x2 molecule

Positions count from the first letter of the chain named.

One assay concerns the target T3, Biotinylated human VEGF-165 (Acro Biosystem) (human, UniProt P15692 207-395, biotinylated (site not stated)).
T3 construct: Bought protein; also called human VEGFA
The assay can be described thus: not stated at this place (BLI in Example 10). The method, then: (§1) Binding characterization was performed using BLI (Satorius) at RT with a 1000 rpm flow-rate. Biotinylated human VEGF-165 (Acro Biosystem) was immobilized onto Streptavidin-coated tips at a concentration of 3 μg/mL for 60 sec in BLI buffer (0.1% BSA and 0.01% Tween-20 in PBS). After a 30 sec baseline, anti-VEGFA DotBodies were associated at 8 different concentrations, including a blank reference, in BLI buffer for 60 sec, followed by a 400 sec dissociation in BLI buffer. The background buffer signal was subtracted using the 0 nM concentration reference, and the kinetics of binding were calculated using a global fit following a 1:1 binding model, using BLI Analysis Software. The bivalent molecule 16A2.1x2 was also characterized as described here, but with a 600 sec dissociation. To characterize the binding of all the clones against murine VEGFA, the same procedure was employed, but the immobilized target was replaced with biotinylated murine VEGF-164 (Acro Biosystem).
Molecule B1 displayed a dissociation constant (Kd) below 5 nM.

The target of the next assay is T3, Biotinylated human VEGF-165 (Acro …). The assay can be described thus: BLI, biotinylated antigen on streptavidin tips, 1:1 global fit. The method, then:
as §1
In general terms: Biolayer interferometry detects binding as a change in optical thickness at a sensor tip.
B2: binding was characterised by a dissociation constant (Kd) of 6.3 nM, the off-rate constant (koff) stood at 0.000442 s⁻¹ and the kon was 69600 M⁻¹ s⁻¹.
As for B3, binding was put at a Kd of 5.54 nM, the koff worked out at 0.00055 s⁻¹ and the kon is 97700 M⁻¹ s⁻¹.
On to B4, for which binding was put at a Kd of 11.3 nM, the koff amounted to 0.00103 s⁻¹ and the on-rate (kon) was determined as 91500 M⁻¹ s⁻¹.
The matching figures for B5: 38.9 nM, 0.00475 s⁻¹ and 122000 M⁻¹ s⁻¹.
The molecule B1 registered a Kd of 2.5 nM, a koff of 0.000986 s⁻¹ and a kon of 394000 M⁻¹ s⁻¹.
B6 came in with a Kd of 14.7 nM, a koff of 0.00136 s⁻¹ and a kon of 92400 M⁻¹ s⁻¹.
In turn, B7 yielded a Kd of 20.5 nM, a koff of 0.00099 s⁻¹ and a kon of 48200 M⁻¹ s⁻¹.
As for B8, the Kd came to 20 nM, the off-rate (koff) was determined as 0.00118 s⁻¹ and the kon amounted to 58000 M⁻¹ s⁻¹.
The like results for B9 were, in that order, 2.8 nM, 0.000802 s⁻¹ and 286000 M⁻¹ s⁻¹.
Molecule B10 returned an equilibrium dissociation constant (Kd) of 2.78 nM, an off-rate (koff) of 0.000725 s⁻¹ and a kon of 260000 M⁻¹ s⁻¹.

In the next assay the target is T1, Biotinylated murine VEGF-164 (Acro …). The assay is described as above. Here is the method:
as §1
B2 showed a Kd of 14.2 nM, a koff of 0.00117 s⁻¹ and an association rate constant (kon) of 82800 M⁻¹ s⁻¹.
B3: the Kd came out at 10.2 nM, the koff was determined as 0.00135 s⁻¹ and the kon is 132000 M⁻¹ s⁻¹.
The matching figures for B4: 13.8 nM, 0.00231 s⁻¹ and 167000 M⁻¹ s⁻¹.
The matching figures for B5: 248 nM, 0.0104 s⁻¹ and 41900 M⁻¹ s⁻¹.
Turning to B1, the Kd was 16.6 nM, the koff came out at 0.00193 s⁻¹ and the kon amounted to 116000 M⁻¹ s⁻¹.
The molecule B6 registered a Kd of 18.4 nM, an off-rate (koff) of 0.00225 s⁻¹ and a kon of 122000 M⁻¹ s⁻¹.
Turning to B7, the Kd is 41.7 nM, the koff was 0.00243 s⁻¹ and the kon came out at 58000 M⁻¹ s⁻¹.
B8 came in with a Kd of 46.1 nM, a koff of 0.00292 s⁻¹ and a kon of 63400 M⁻¹ s⁻¹.
In turn, B9 displayed a Kd of 8.34 nM, an off-rate constant (koff) of 0.00169 s⁻¹ and a kon of 205000 M⁻¹ s⁻¹.
Turning to B10, the affinity, expressed as Kd, was 8.7 nM; the koff came to 0.000889 s⁻¹; the kon worked out at 102000 M⁻¹ s⁻¹.

Another assay concerns the target T2, Human VEGF-121 (Acro Biosystems). In words: competitive ELISA, inhibition of VEGF-121 (0.5 nM) binding to coated VEGFR1 (FIG. 4). Here is the method: (§2) To perform the competitive ELISA, the VEGFR1 was immobilized at a concentration of 2 μg/mL onto a Maxisorp 96-well plate (Thermo Scientific) overnight at 4° C., washed three times with PBS and blocked for 1 h at RT with ELISA Block Buffer (EBB: 0.2% BSA in PBST). […] The samples were incubated for 2 h at RT, and 50 μL transferred onto the VEGFR1-coated plate. After 2 h incubation, the plate was washed 3 times with PBST. 50 μL of streptavidin-HRP conjugate (Thermo Scientific) was added at a 1:5,000 dilution in EBB, and incubated for 1 h at RT. The plate was washed 5 times with PBST, and developed with 50 μL 3,3′,5,5′-Tetramethylbenzidine (TMB) substrate (GeneTex). After 5-15 min, the reactions were stopped by adding 50 μL of 2M H₂SO₄, and signal was measured at an absorbance of 450 nm.
In turn, B5 displayed an IC50 of 5900 nM.
B1 registered an IC50 of 12.2 nM.
Still for that read-out and setting: under B6 stands 41.4 nM.

For another assay the target is unchanged. In words: competitive ELISA, inhibition of VEGF-121 (0.5 nM) binding to coated VEGFR1 (FIG. 5). Here is the method: as §2
Background: In an ELISA, binding on a coated surface is turned into a signal by an enzyme label.
With B2, the 50% inhibitory concentration (IC50) worked out at 7.5 nM.
Take B3: the IC50 was 1.6 nM.
Turning to B4, the IC50 came to 0.9 nM.
The same measure, in the same setting: the result for B1 reads 3 nM; that for B7, 1 nM; that for B8, 1.8 nM.
Still for that read-out and setting: the result for B9 reads 1.4 nM.
Same read-out and setting: under B10 stands 0.9 nM.

The next assay concerns the target T3, Biotinylated human VEGF-165 (Acro …). The assay can be described thus: BLI, biotinylated antigen on streptavidin tips, 600 sec dissociation, 1:1 global fit. Here is the method:
as §1
The molecule B11 came in with a Kd of 0.301 nM, a koff of 0.000128 s⁻¹ and a kon of 426000 M⁻¹ s⁻¹.

One may read the Kd as the constant that tells how readily two partners part at equilibrium. A lower Kd goes with tighter binding. As a reminder, the koff is the first-order rate constant of dissociation. Low values mean a long-lived complex, high ones a short-lived complex. Broadly, the kon is the rate constant with which the complex forms. A low value points to slower complex formation. A word on the IC50: it is the concentration that inhibits the measured activity by half. Low values mean inhibition by little substance, high ones a need for much substance.

These data come from patent US20240132580A1 (DOTBIO PTE, published 2024).
